Reference: patent publication US20070286806A1, “Methods and Compositions for Modulating a Steroid Receptor” (Mount Sinai Hospital, priority 2004, published 2007)

T1: PR DNA binding domain / PRE (Homo sapiens, UniProt P06401)
T1 construct: PR 556-650 was also inserted downstream of T7 promoter of pcDNA3; made in house; host or cells: rabbit reticulocyte lysate (TNT, Promega); GST-PSF from E. coli
T1 sequence (P06401 1-933): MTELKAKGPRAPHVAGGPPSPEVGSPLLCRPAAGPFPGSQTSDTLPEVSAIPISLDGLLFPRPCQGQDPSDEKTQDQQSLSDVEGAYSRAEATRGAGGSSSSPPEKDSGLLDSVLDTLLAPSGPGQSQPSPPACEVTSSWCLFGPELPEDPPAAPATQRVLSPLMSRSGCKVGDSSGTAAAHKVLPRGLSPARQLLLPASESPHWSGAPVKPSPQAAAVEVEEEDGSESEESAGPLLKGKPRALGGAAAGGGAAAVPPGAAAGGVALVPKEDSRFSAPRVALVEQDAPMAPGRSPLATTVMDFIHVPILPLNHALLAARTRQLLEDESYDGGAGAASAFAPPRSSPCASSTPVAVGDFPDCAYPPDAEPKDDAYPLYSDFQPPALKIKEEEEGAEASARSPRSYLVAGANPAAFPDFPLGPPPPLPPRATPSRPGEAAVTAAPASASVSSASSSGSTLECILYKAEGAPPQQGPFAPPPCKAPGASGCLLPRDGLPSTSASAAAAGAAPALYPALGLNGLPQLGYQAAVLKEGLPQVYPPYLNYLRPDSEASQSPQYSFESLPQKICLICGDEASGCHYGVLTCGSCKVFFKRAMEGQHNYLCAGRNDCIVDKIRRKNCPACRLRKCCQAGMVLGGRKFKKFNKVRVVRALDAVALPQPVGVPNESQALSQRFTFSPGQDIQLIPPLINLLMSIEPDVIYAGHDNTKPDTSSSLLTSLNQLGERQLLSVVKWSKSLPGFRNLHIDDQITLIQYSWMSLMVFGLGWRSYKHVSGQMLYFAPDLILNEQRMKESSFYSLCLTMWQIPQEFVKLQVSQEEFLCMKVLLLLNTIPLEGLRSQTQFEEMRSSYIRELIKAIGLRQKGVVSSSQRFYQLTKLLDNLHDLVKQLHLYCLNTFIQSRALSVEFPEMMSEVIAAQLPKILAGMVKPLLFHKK

T2: PR DNA binding domain / PRE (Homo sapiens, UniProt P06401)
T2 construct: PR 556-650 was also inserted downstream of T7 promoter of pcDNA3; made in house; host or cells: rabbit reticulocyte lysate (TNT, Promega); GST-PSF from E. coli
T2 sequence (P06401 556-650): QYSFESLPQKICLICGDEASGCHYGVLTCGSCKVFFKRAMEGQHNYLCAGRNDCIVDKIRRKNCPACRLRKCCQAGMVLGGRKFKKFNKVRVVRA

B1: GST-PSF: bacterially expressed GST-PSF fusion protein (protein)
chain: MSRDRFRSRGGGGGGFHRRGGGGGRGGLHDFRSPPPGMGLNQNRGPMGPGPGQSGPKPPIPPPPPHQQQQQPPPQQPPPQQPPPHQPPPHPQPHQQQQPPPPPQDSSKPVVAQGPGPAPGVGSAPPASSSAPPATPPTSGAPPGSGPGPTPTPPPAVTSAPPGAPPPTPPSSGVPTTPPQAGGPPPPPAAVPGPGPGPKQGPGPGGPKGGKMPGGPKPGGGPGLSTPGGHPKPPHRGGGEPRGGRQHHPPYHQQHHQGPPPGGPGGRSEEKISDSEGFKANLSLLRRPGEKTYTQRCRLFVGNLPADITEDEFKRLFAKYGEPGEVFINKGKGFGFIKLESRALAEIAKAELDDTPMRGRQLRVRFATHAAALSVRNLSPYVSNELLEEAFSQFGPIERAVVIVDDRGRSTGKGIVEFASKPAARKAFERCSEGVFLLTTTPRPVIVEPLEQLDDEDGLPEKLAQKNPMYQKERETPPRFAQHGTFEYEYSQRWKSLDEMEKQQREQVEKNMKDAKDKLESEMEDAYHEHQANLLRQDLMRRQEELRRMEELHNQEMQKRKEMQLRQEEERRRREEEMMIRQREMEEQMRRQREESYSRMGYMDPRERDMRMGGGGAMNMGDPYGSGGQKFPPLGGGGGIGYEANPGVPPATMSGSMMGSDMRTERFGQGGAGPVGGQGPRGMGPGTPAGYGRGREEYEGPNKKPRF
modifications: left off: a dimerising Fc or GST
notes: bacterially expressed GST-PSF fusion protein

Key:
[1] = molecular target: myometrial progesterone receptors; settings: cited from earlier work
[2] = molecular target: T1, PR DNA binding domain / PRE; test: Electrophoretic Mobility Shift Assay of PR binding to PRE; settings: nuclear extract of 293T cells transfected with Flag-PRB, increasing doses
Method: (§1) FIG. 8. PSF interferes with binding of PR DNA binding domain to PRE. (A) Electrophoretic mobility shift assay was performed with ^32P-labeled PRE incubated with in vitro translated PRDBD (1, 2, 5μl in lane 3 to 5 and 2 μl in lane 6 to 11) and increasing amount of bacterially expressed GST (lane 6 to 8) or GST PSF (lane 9 to 11). TNT lysate (lane 2) was used as negative control. (B) PR-Nuclear extraction (1 and 2 μg) as described in the method was incubated with PRE oligo in a dose dependent manner (lane 2 and 3). Anti-PR antiserum (AB-52) was added to the incubation mixture (lane 4). Addition of increasing dose (1 and 2 μl) of GST or GST-PSF in the same reaction as lane 3 was shown in lane 6, 7 and 9, 10. In the control experiments (lane 5 and 8), GST or GST-PSF was incubated with PRE without adding PR-nuclear extract. All reactions contain 10 nM progesterone.
(§2) For immunoprecipitation of the endogenous PR and PSF, T47D cells cultured in 150 mm dishes were lysed in 800 μl NETN buffer containing 150 mM NaCl plus protease inhibitor cocktail. […] Gels were treated with Enhancer (NEN, Boston, US) dried and analyzed by autoradiography. • Cell culture and transient transfection: SHM cells and 293T cells were maintained in DMEM plus 5% FCS (Sigma) as described before (22). […] Luciferase activity was determined by using the luciferin reagent (Promega) according to manufacture's protocol. […]

[3] = molecular target: T2, PR DNA binding domain / PRE; test: as above; settings: in vitro translated PRDBD, 32P-labeled PRE
Method: as §1, §2

Molecule	Kd [1]	association of full-length PR to PRE [2]	association of PRDBD to PRE [3]
CC(=O)[C@H]1CC[C@H]2[C@@H]3CCC4=CC(=O)CC[C@]4(C)[C@H]3CC[C@]12C [progesterone]	1 nM		
B1		decrease of association of PR to PRE	decreased association of PRDBD to PRE
